What was measured:
[1] = biological target: T1, Human ZNRF3 ECD (amino acids 56-219) (human, UniProt Q9ULT6 56-219, site-specifically biotinylated by BirA ligase at the C-terminal biotin-acceptor peptide); test: yeast surface display titration: scFv-displaying yeast with increasing ZNRF3, flow cytometry, normalized MFI
T1 construct: range 56-219; The methods say that ZNRF3 means the ECD only; also called ZNR3 ECD; biotinylated ZNRF3
T1 sequence: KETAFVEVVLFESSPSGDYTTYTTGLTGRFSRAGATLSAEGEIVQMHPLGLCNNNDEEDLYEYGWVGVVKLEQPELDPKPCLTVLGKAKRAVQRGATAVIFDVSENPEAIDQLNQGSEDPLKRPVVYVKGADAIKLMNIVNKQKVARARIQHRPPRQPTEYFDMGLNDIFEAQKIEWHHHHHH
Procedure: (§1) Plasmids from the final round of selection were isolated using the Zymoprep Yeast Plasmid Miniprep Kit (Zymo Research) and sequenced. These plasmids were electroporated into S. cerevisiae EBY100 yeast and recovered in SDCAA selection media, followed by induction in SGCAA induction media. The individual scFv-transformed yeast were incubated with increasing concentration of biotinylated RNF43/ZNRF3. These yeast were stained with SA-647 and Myc-488 and fluorescence was monitored by flow cytometry. The data were analyzed by GraphPad Prism 7 and the highest affinity clones were identified for subsequent experiments.

[2] = biological target: T2, Human RNF43 Extracellular Domain (ECD) (amino acids 24-197) (human, UniProt Q68DV7 24-197, site-specifically biotinylated by BirA ligase at the C-terminal biotin-acceptor peptide); test: yeast surface display titration: scFv-displaying yeast with increasing RNF43, flow cytometry, normalized MFI
T2 construct: range 24-197; The methods say that RNF43 means the ECD only; also called RNF43 ECD; biotinylated RNF43
T2 sequence: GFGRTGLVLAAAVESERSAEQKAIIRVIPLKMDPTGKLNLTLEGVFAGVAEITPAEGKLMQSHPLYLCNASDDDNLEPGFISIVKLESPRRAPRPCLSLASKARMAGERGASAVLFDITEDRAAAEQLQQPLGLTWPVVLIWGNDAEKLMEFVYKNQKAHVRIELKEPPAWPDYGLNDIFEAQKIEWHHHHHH
Procedure: as §1

B1: Z6 scFv (scFv)
scFv: ASQVQLVQSGAEVKNPGASVKVSCKASGYAFTSYGISWVRQAPGQGLEWMGWISAYTRNTNYAQKFQGRVTLTTDTSTSTAYMELRSLRSDDTAIYYCARDARYSLGVGAFDVWGQGTMVTVSSGILGSGGGGSGGGGSGGGGSETTLTQSPAFMSATPGDKVSISCKASRDIDDDLNWYQQKPGEAAISIIQEATTLVPGIPPRFSGSGYGTDFTLTINNIESEDAAYYFCLQHDDVPYTFGQGTKLEIKSGIL
EC50 [1]: 113 nM

B2: R5 scFv (scFv)
scFv: ASQITLKESGPTLVKPTQTLTLTCSFSGFSLSFSGVGVAWIRQPPGKALEWLALIYWDDDKRYSPSLKSRLTITKDTSKNQVVLTMTNMDPLDTATYYCAHREWKAFGAFDIWGQGTMVTVSSGILGSGGGGSGGGGSGGGGSQPVLTQSPSASGTPGQRVTISCSGSSSNIGSNTVNWYQQLPGTAPKLLIYSNNQRPSGVPDRFSGSKSVTSASLAISGLQSEDEAEYYCATWDDSLNGAVFGGGTQLTVLSGILG
EC50 [2]: 122 nM

From US20200024338A1 (Stanford University, published 2020)
